Here are results for 14 molecules from patent publication US11402384B2 (Duke University, priority 2015, dated 2022).

The labels stand for the following.
B1: H66C Acrylodan: tsGBP2_C66 (SEQ ID NO: 24) Acrylodan conjugate (conjugate)
chain: MKLEIFSWWAGDEGPALEALIRLYKQKYPGVEVINATVTGGAGVNAKAVLKTRMLGGDPPDTFQVCAGQELIGTWVVADRMEDLTSLFRQEGWLQAFPKGLIDLLSYKGGIWSVPVNIHRSNVMWYIPAKLKEWGVTPPKTWAEFLATAQTLKRKGLEAPLALGENWTQQHLWESVALATLGADGWNNLWSGKLKFTDPKAVAVWETFGKVLDAANKDAAGLSWQQAVDRVVQGKAAFNIMGDWAAGYMSTTLKLKPGTDFAWTPSPGTSGIFMMLSDSFGLPKGAKNRQNAINWLKLVGSKEGQDTFNPLKGSIAARLDSDPAKYNAYGQSAMKDWKSNRIVGSLVHGAVAPESFMSQFGTVMEIFLQSRNPQAAANAAQAIANQVGLGRGGSHHHHHH
modifications: Acrylodan conjugate; tsGBP2_C66 (66C substitution mutant with signal peptide replaced with M and a GGSHHHHHH at C-terminus)
B2: H119C Acrylodan: tsGBP2_C119 (SEQ ID NO: 25) Acrylodan conjugate (conjugate)
chain: B1 chain with C66H, H119C
modifications: Acrylodan conjugate; tsGBP2_C119 (119C substitution mutant with signal peptide replaced with M and a GGSHHHHHH at C-terminus)
B3: A42C Acrylodan: tsGBP2_C42 (SEQ ID NO: 22) Acrylodan conjugate (conjugate)
chain: B1 chain with A42C, C66H
modifications: Acrylodan conjugate; tsGBP2_C42 (42C substitution mutant with signal peptide replaced with M and a GGSHHHHHH at C-terminus)
B4: Q64C Acrylodan: tsGBP2_C64 (SEQ ID NO: 23) Acrylodan conjugate (conjugate)
chain: B1 chain with Q64C, C66H
modifications: Acrylodan conjugate; tsGBP2_C64 (64C substitution mutant with signal peptide replaced with M and a GGSHHHHHH at C-terminus)
B5: S223C Acrylodan: tsGBP2_C223 (SEQ ID NO: 27) Acrylodan conjugate (conjugate)
chain: B1 chain with C66H, S223C
modifications: Acrylodan conjugate; tsGBP2_C223 (223C substitution mutant with signal peptide replaced with M and a GGSHHHHHH at C-terminus)
B6: W224C Acrylodan: tsGBP2_C224 (SEQ ID NO: 28) Acrylodan conjugate (conjugate)
chain: B1 chain with C66H, W224C
modifications: Acrylodan conjugate; tsGBP2_C224 (224C substitution mutant with signal peptide replaced with M and a GGSHHHHHH at C-terminus)
B7: W167C Acrylodan: tsGBP2_C167 (SEQ ID NO: 26) Acrylodan conjugate (conjugate)
chain: B1 chain with C66H, W167C
modifications: Acrylodan conjugate; tsGBP2_C167 (167C substitution mutant with signal peptide replaced with M and a GGSHHHHHH at C-terminus)
B8: G41C Badan: tsGBP2_C41 (SEQ ID NO: 21) Badan conjugate (conjugate)
chain: B1 chain with G41C, C66H
modifications: Badan conjugate; tsGBP2_C41 (41C substitution mutant with signal peptide replaced with M and a GGSHHHHHH at C-terminus)
B9: H66C Badan: tsGBP2_C66 (SEQ ID NO: 24) Badan conjugate (conjugate)
chain: B1 chain
modifications: Badan conjugate; tsGBP2_C66 (66C substitution mutant with signal peptide replaced with M and a GGSHHHHHH at C-terminus)
B10: W167C Badan: tsGBP2_C167 (SEQ ID NO: 26) Badan conjugate (conjugate)
chain: B1 chain with C66H, W167C
modifications: Badan conjugate; tsGBP2_C167 (167C substitution mutant with signal peptide replaced with M and a GGSHHHHHH at C-terminus)
B11: Q64C Badan: tsGBP2_C64 (SEQ ID NO: 23) Badan conjugate (conjugate)
chain: B1 chain with Q64C, C66H
modifications: Badan conjugate; tsGBP2_C64 (64C substitution mutant with signal peptide replaced with M and a GGSHHHHHH at C-terminus)
B12: S223C Badan: tsGBP2_C223 (SEQ ID NO: 27) Badan conjugate (conjugate)
chain: B1 chain with C66H, S223C
modifications: Badan conjugate; tsGBP2_C223 (223C substitution mutant with signal peptide replaced with M and a GGSHHHHHH at C-terminus)
B13: H119C Badan: tsGBP2_C119 (SEQ ID NO: 25) Badan conjugate (conjugate)
chain: B1 chain with C66H, H119C
modifications: Badan conjugate; tsGBP2_C119 (119C substitution mutant with signal peptide replaced with M and a GGSHHHHHH at C-terminus)
B14: A42C Badan: tsGBP2_C42 (SEQ ID NO: 22) Badan conjugate (conjugate)
chain: B1 chain with A42C, C66H
modifications: Badan conjugate; tsGBP2_C42 (42C substitution mutant with signal peptide replaced with M and a GGSHHHHHH at C-terminus)

Substitutions are numbered along the chain they refer to. Numbers in names are those of the source.

The nature of one assay: Ratiometric fluorescence glucose titration of fluorescent conjugates. Format: binding. The following applies: tsGBP2 cysteine scan, Acrylodan conjugate. Set-up: key to Shape (fluorescence response to glucose) / Change (fluorescence response to glucose): m, monochromatic; d, dichromatic (i.e. spectral shape change); 0, no change. The text has this:
Semi-synthetic FRSs can be engineered by site-specifically attaching thiol-reactive, environmentally sensitive fluorophores that respond to ligand-mediated conformational changes. Identification of FRS candidates that can be used for sensing applications comprises three steps: • 1. Cysteine scan. Mutant glucose-binding proteins containing single cysteines are constructed for site-specific attachment of thiol-reactive fluorophores. […] Candidate positions fall into three classes: endosteric, replacing a residue that contacts the ligand directly; peristeric, located at the rim of the binding site; allosteric (Marvin et al., 1997, Proc Natl Acad Sci USA, 94, 4366-71; Marvin, 1998, J Am Chem Soc, 120, 7-11), located outside the binding site at sites that undergo local structural changes in concert with the hinge-bending motion. • 2. Fluorophore screening. Thiol-reactive, environmentally sensitive fluorophores are attached to each cysteine mutant prepared in step 1. • 3. Evaluation of the glucose-mediated change of all the fluorescent conjugates prepared in step 2. Responses to ligand binding in which there is both a change in fluorescence emission intensity and spectral shape are essential for chemometric applications, because such changes enable ratiometric measurements. Changes in spectral shape typically are accompanied by a shift in the wavelength of the emission intensity maxima. Three classes of fluorescent responses are possible: • i. No response. • ii. Monochromatic response (emission intensity increases or decreases without a change in spectral shape) • iii.
Determination of temperature- and ligand-dependent fluorescence landscapes. […] Temperatures were advanced in 1K steps.
Determination of emission intensity spectra.
2 For a single glucose-binding site, the fractional saturation is given by […]
B1: the “Shape (fluorescence response to glucose)” value is given as “d”.
In the case of B2, the “Shape (fluorescence response to glucose)” value is on record as “m”.
The same measure, in the same setting: the value for B3 was 0.
As to B4, the “Shape (fluorescence response to glucose)” value amounted to 0.
In the case of B5, the “Shape (fluorescence response to glucose)” value was 0.
Still for that read-out and setting: with B6 the entry was “m”; with B7, “d”.

Staying with this assay, now noted: tsGBP2 cysteine scan, Acrylodan conjugate; ratiometric fit at λ1 and λ2; read-out: Kd ^appKd.
As a reminder, the Kd is the constant that tells how readily two partners part at equilibrium. With B2, the Kd came to 20 µM.
The same measure, in the same setting: with B6 the figure was 700 µM.
Still for that read-out and setting: with B7 the figure was 20 µM.

Staying with this assay, now noted: tsGBP2 cysteine scan, Acrylodan conjugate; ratiometric fit at λ1 and λ2; read-out: Kd ^trueKd.
On to B2, for which the Kd turned out to be 20 µM.
The same measure, in the same setting: with B6 the figure was 900 µM.
Still for that read-out and setting: with B7 the figure was 20 µM.

Staying with this assay, now noted: tsGBP2 cysteine scan, Badan conjugate.
Consider B8, for which the “Shape (fluorescence response to glucose)” value was “m”.
Same read-out and setting: with B9 the entry was “m”.
For B10, the “Shape (fluorescence response to glucose)” value was “m”.
Still for that read-out and setting: with B11 the entry was “m”; with B12, “m”.
Consider B13, for which the “Shape (fluorescence response to glucose)” value is “m”.
The same measure, in the same setting: the value for B14 was “m”.
